Reference: patent publication US20220409694A1, “POLYPEPTIDE, AND PREPARATION METHOD THEREFOR AND USE THEREOF” (SHANXI JINBO BIO-PHARMACEUTICAL CO., LTD., priority 2020, published 2022)

What was measured:
Experiment in all cases: cell-based or functional assay
[1] = molecular target: Rs3367-CoV S protein (pcDNA3.1-Rs3367-CoV-S, on pseudovirus) (Rs3367-CoV (SARS-like virus from bats))
[2] = molecular target: WIV1-CoV S protein (pcDNA3.1-WIV1-CoV-S, on pseudovirus) (WIV1-CoV (SARS-like virus from bats))
[3] = molecular target: SARS-CoV S protein (pcDNA3.1-SARS-CoV-S, on pseudovirus) (SARS-CoV), P59594

B1: EK1 (peptide)
peptide: SLDQINVTFLDLEYEMKKLEEAIKKLEESYIDLKEL
modifications: not checked
Which Inhibitory Activity, IC50 (pseudovirus infection of HuH7, luciferase) [1] does the source give for B1 here?
The Inhibitory Activity, IC50 (pseudovirus infection of HuH7, luciferase) was 4 µM.

And the Inhibitory Activity, IC50 (pseudovirus infection of HuH7, luciferase) [2]?
Its Inhibitory Activity, IC50 (pseudovirus infection of HuH7, luciferase) is 2.94 µM.

What about the Inhibitory Activity, IC50 (pseudovirus infection of HuH7, luciferase) [3] of the same binder?
The Inhibitory Activity, IC50 (pseudovirus infection of HuH7, luciferase) was 1.89 µM.
